{"source": "paper PMC5934625", "about": "“A structurally conserved motif in γ-herpesvirus uracil-DNA glycosylases elicits duplex nucleotide-flipping”", "binders": {"B1": {"name": "5'FAM-idu_2 duplex (dsDNA)", "DNA 1": "AAAGATAACATT", "DNA 2": "AATGTUATCTT", "modifications": "dU at position 6 of strand 2; converted to abasic site (beta-anomer deoxyribose) in the product complex, no density for uracil"}}, "target": "T1, kUNG (kUNGΔ18), uracil-DNA glycosylase (Kaposi's sarcoma-associated herpesvirus …, UniProt F5HFA1 19-255)", "T1 sequence": "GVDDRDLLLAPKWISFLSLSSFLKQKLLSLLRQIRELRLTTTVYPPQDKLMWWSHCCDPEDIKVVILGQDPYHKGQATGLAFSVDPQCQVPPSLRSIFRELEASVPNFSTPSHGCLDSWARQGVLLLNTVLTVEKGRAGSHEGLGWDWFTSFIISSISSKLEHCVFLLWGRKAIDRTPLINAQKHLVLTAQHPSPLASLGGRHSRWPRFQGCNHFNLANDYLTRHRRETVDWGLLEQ", "test": "X-ray crystallography; product complex after uracil cleavage; 100 mM Mg acetate in crystallisation; Crystallisation: protein:DNA 1:1.2, annealing buffer 20 mM Tris-HCl pH 7.4, 100 mM NaCl, 20 mM MgCl2; crystals in 100 mM sodium acetate pH 4.5, 100 mM Mg acetate, 8% PEG 8000, 16 °C. Km/Vmax of mutants (Table 3) are turnover only and left out.", "conditions": "protein: recombinant; tags: N-terminal 6xHis-TEV cleaved; Ser-Ala-Ser remains; label: 5'-FAM on strand 1; 5' overhang 1 nt (strand 1); U:A pair"}
{"binder": "B1", "values": [{"measurement": "binding result", "value": "binds"}]}
